Test results: US20260069656A1, “Nutritive Polypeptides and Formulations Thereof, and Methods of Production and Use Thereof” (Axcella Health Inc., priority 2013, published 2026)

B1: Heat-denatured SEQID-00363: SEQID-00363 diluted to 30 g/L in 10% PBS and rapidly heated to 95° C. (protein)
chain: ATLDSWLSNEATVARTAILNNIGADGAWVSGADSGIVVASPSTDNPDYFYTWTRDSGLVLKTLVDLFRNGDTSLLSTIENYISAQAIVQGISNPSGDLSSGAGLGEPKFNVDETAYTGSWGRPQRDGPALRATAMIGFGQWLLDNGYTSTATDIVWPLVRNDLSYVAQYWNQTGYDLWEEVNGSSFFTIAVQHRALVEGSAFATAVGSSCSWCDSQAPEILCYLQSFWTGSFILANFDSSRSGKDANTLLGSIHTFDPEAACDDSTFQPCSPRALANHKEVVDSFRSIYTLNDGLSDSEAVAVGRYPEDTYYNGNPWFLCTLAAAEQLYDALYQWDKQGSLEVTDVSLDFFKALYSDAATGTYSSSSSTYSSIVDAVKTFADGFVSIVETHAASNGSMSEQYDKSDGEQLSARDLTWSYAALLTANNRRNSVVPASWGETSASSVPGTCAATSAIGTYSSVTVTSWPSIVATGGTTTTATPTGSGSVTSTSKTTATASKTSTSTSSTSCTTPTAVAVTFDLTATTTYGENIYLVGSISQLGDWETSDGIALSADKYTSSDPLWYVTVTLPAGESFEYKFIRIESDDSVEWESDPNREYTVPQACGTSTATVTDTWR
modifications: heat-denatured; Aspergillus niger
B2: SEQID-00485: nutritive polypeptide naturally produced in Chickpea, recombinantly expressed in E. coli (protein, listed as Cicer arietinum)
chain: MTKTGYINAAFRSSRNNEAYLFINDKYVLLDYAPGTSNDKVLYGPSFVRDGYKSLAKTIFGTYGIDCSFDTEYNEAFIFYENFCARIDYAPHSDKDKIISGPKKIADMFPFFKGTVFENGIDAAFRSTKGKEVYLFKGDKYARIDYLTNRLVQNIKSISDGFPCLRGTIFEAGMDSAFASHKTNEAYLFKGEYYARINFTPGSTNDIMGGVKKTLDYWPSLRGIIPLE
B3: SEQID-00502: protein of the 168 nutritive polypeptide library (protein)
chain: MASQSNTKSVHDFTVKDARGNNVNLADYKGKVLLIVNVASQCGLTNSNYTELNQLYEKYKGKGLEILAFPCNQFGAQEPGTNEEIVEFACTRFKAEFPIFDKVDVNGDNAAPLYKFLKSSKGGLFGDSIKWNFSKFLVDKDGNVVDRYAPTTSPLSIEKDIKKLLDA
modifications: Glycine max
notes: protein of the 168 nutritive polypeptide library
B4: SEQID-00511: protein of the 168 nutritive polypeptide library (protein)
chain: MVLFGFGKKKSLPKPEEALPGRDRVMSVPDRHYINGNPLKPPFPEGMEQAVFGLGCFWGAERKFWQQQGVFSTAVGYAGGYTKNPTYEEVCSGMTGHTEVVLVVFDPKVISYTDLLKLFWESHNPTQGMRQGNDTGTQYRSAIYTYSDEQQRLALASRDRYQQALSAASYGEITTEIAPAQEFYYAEAYHQQYLGKNPNGYCGLGGTGVGCPAMTETSV
modifications: Arthrospira platensis C1
notes: as for B3
B5: SEQID-00423: nutritive polypeptide (protein)
chain: VNGTLMQYFEWYTPNDGQHWKRLQNDAEHLSDIGITAVWIPPAYKGLSQSDNGYGPYDLYDLGEFQQKGTVRTKYGTKSELQDAIGSLHSRNVQVYGDVVLNHKAGADATEDVTAVEVNPANRNQETSEEYQIKAWTDFRFPGRGNTYSDFKWHWYHFDGADWDESRKISRIFKFRGEGKAWDWEVSSENGNYDYLMYADVDYDHPDVVAETKKWGIWYANELSLDGFRIDAAKHIKFSFLRDWVQAVRQATGKEMFTVAEYWQNNAGKLENYLNKTSFNQSVFDVPLHFNLQAASSQGGGYDMRRLLDGTVVSRHPEKAVTFVENHDTQPGQSLESTVQTWFKPLAYAFILTRESGYPQVFYGDMYGTKGTSPKEIPSLKDNIEPILKARKEYAYGPQHDYIDHPDVIGWTREGDSSAAKSGLAALITDGPGGSKRMYAGLKNAGETWYDITGNRSDTVKIGSDGWGEFHVNDGSVSIYVQK
modifications: Bacillus Amyloliquefaciens
B6: SEQID-00605: nutritive polypeptide naturally produced in Mushroom, recombinantly expressed in E. coli (protein, listed as Agaricus bisporus)
chain: MLEFTLNDGNRIPAIAFGTGTALYNQDASAFVRLAIETGITHLDGAQMYENEETLGKGIKSSGKPRSELFITTKLHILKPGQTVRETLVESLGKIGVDYVDLFLIHDPTANRKEATLSEIWSQLEALKNEGLTKSIGVSNFKVEDLNEILPGAKIIPAVNQIEFHPYVLKAASPIIELCKAKGIIVASYGGQTPIVRATDGPLKDLLPKIRERLEQTRGSPVTEGQVLTKWLLQKNVIAISTSSKESRIKEFLSTVDVPDLTKQEIESIDNAGSTIHKRIYMKHIFNE
modifications: var. bisporus; strain H97 / ATCC MYA-4626 / FGSC 10389
notes: nutritive polypeptide naturally produced in Mushroom, recombinantly expressed in E. coli

Tests used:
[1] = Intact half-life during simulated gastric fluid (SGF) digestion; details: for Half-life: purified proteins, chip electrophoresis, SGF
Method: Nutritive polypeptide half-life during simulated digestion. One metric for quantifying the breakdown of polypeptides from an intact form to smaller peptides is the intact half-life. In this experiment the nutritive polypeptide was exposed to a series of proteases that are active in the stomach (pepsin) and intestine (trypsin and chymotrypsin), and the presence of intact protein was measured over time. Specifically, the nutritive polypeptide was first treated at a concentration of 2 g/L with simulated gastric fluid (SGF) (0.03 M NaCl, titrated with HCl to pH 1.5 with a final pepsin: polypeptide ratio of 1:20 w/w) at 37° C. Time points were sampled from the reaction and quenched by addition of 0.2 M Na2CO3. […] Time points were sampled from the reaction and quenched by addition of Trypsin/Chymotrypsin Inhibitor (Sigma) solution until 240 min.
Time point samples were analyzed for intact protein by chip electrophoresis, polyacrylamide gel electrophoresis, or western blot. For chip electrophoresis (Labchip GX II), samples were analyzed using a HT Low MW Protein Express LabChip® Kit (following the manufacturer's protocol). A protein ladder was loaded every 12 samples for molecular weight determination (kDa) and quantification. For polyacrylamide gel electrophoresis, samples (1 μg) were separated on a NuPAGE® Novex® Bis-Tris Precast gel (Life Technologies) according to the manufacturer's protocol. The gel was stained using SimplyBlue™ SafeStain (Invitrogen) and imaged using a Chemidoc XRS+ (BioRad) or transferred onto nitrocellulose membranes using the iBlot® Dry Blotting System (Life Technologies) and iBlot® Western Detection Kit (Life Technologies) according to the manufacturer's protocol. Proteins were detected by blotting with Anti-His [C-term]-HRP antibody diluted 3:5000 in Blok™-PO Blocking Buffer using the SNAP i.d.® Protein Detection System (Millipore) according to the manufacturer's protocol. Blots were treated with Luminata Classico Western HRP Substrate (Millipore) according to the manufacturer's protocol and imaged using chemiluminescent detection on the Molecular Imager® Gel Doc™ XR+ System (Bio-Rad). Quantification of intact protein was determined by densitometry using ImageLab (BioRad). For all analysis methods the relative concentration of the polypeptide at each time point (if detected) was plotted overtime and fit to an exponential curve to calculate the intact half-life.
Specifically, the t=0 (enzyme-free control) and t=2 min samples from the SGF digest were analyzed for intact protein as described by chip electrophoresis, SDS-PAGE, western blot, and/or LC-MS/MS. Relative quantities of polypeptides at each time point were determined and the percentage of intact protein remaining at t=2 was determined.

[2] = Pancreatin-based in vitro digestion, free amino acids by RP-HPLC
Method: In this method, pancreatin, a mixture of enzymes, is used to simulate intestinal proteases. Specifically, the digestion of polypeptides into amino acids was analyzed by an in vitro Pancreatin-based digestion assay followed by free amino acid analysis using reversed phase HPLC (RP-HPLC). The nutritive polypeptide was added to SGF (0.92 g/L Pepsin (Sigma), 0.03 M NaCl titrated with HCl to pH 1.5) at a final concentration of 4 g/L and incubated at 37° C. for 120 min. After 120 min, Na2CO3 was added to a final concentration of 16 mM to quench the pepsin reaction. […] Time points were sampled from the reaction and quenched by heating to 95° C. for 5 min. Control samples were protease-free.
Analyses were performed using an Agilent 1100 series system. Primary amino acids were derivitized pre-column at room temperature, online, using o-phthalaldehyde (OPA). The OPA-derivatives were separated using the Zorbax Eclipse-AAA 4.6×150 mm, 3.5 μm column at 40° C. The separation gradient transitioned from 100% 40 mM Na2HPO4 pH 7.8 to 65% acetonitrile/methanol/water mixture (45/45/10) over 23 minutes. Analytes were detected by fluorescence at 340 nm Ex/450 nm Em.

[3] = SGF digest of the 168 nutritive polypeptide library, intact protein by LC-MS/MS spectral counts; format: in vitro ADME; details: proteins detected in the 168 nutritive polypeptide library
Method: Nutritive polypeptide intact half-life determination in a complex mixture. The in vitro intact half-life of multiple polypeptides in a complex mixture was determined using the simulated gastric in vitro digestion described above. Briefly, the 168 nutritive polypeptide library was generated as described herein by cloning, transforming, and expressing a gene library encoding 168 proteins as a single mixture. The recombinantly expressed proteins were purified from host cell proteins by IMAC purification as described herein.
The 168 Protein Library was treated with SGF as described above and the t=0 and t=10 min samples were analyzed for intact protein by LC-MS/MS. To begin, 10 μg of sample was loaded onto a 10% SDS-PAGE gel (Invitrogen) and run approximately 5 cm into the gel. The gel was excised into ten fractions from 100 kD to the dye front and the gel slices were processed by washing with 25 mM ammonium bicarbonate, followed by acetonitrile. Gel fractions were then reduced with 10 mM dithiothreitol at 60° C., followed by alkylation with 50 mM iodoacetamide at room temperature. Finally, the samples were digested with trypsin (Promega) at 37° C. for 4 h and the digestions were quenched with the addition of formic acid. The samples were then analyzed by nano LC/MS/MS using an EasynLC 1000 HPLC system interfaced to a ThermoFisher Q Exactive. Peptides were loaded on a trapping column and eluted over a 75 μm analytical column at 350 nL/min; both columns were packed with PepMap C18 3 μm resin (ThemoFisher). A 1 hour gradient was employed. The mass spectrometer was operated in data-dependent mode, with MS and MS/MS performed in the Orbitrap at 70,000 FWHM resolution and 17,500 FWHM resolution, respectively. The fifteen most abundant ions were selected for MS/MS. Data were searched against an appropriate database using Mascot to identify peptides. Mascot DAT files were parsed into the Scaffold software for validation, filtering and to create a nonredundant list per sample. Data were filtered at 1% protein and peptide false discovery rate (FDR) and requiring at least two unique peptides per protein. A full list of detected proteins and their spectral counts (SpC) was generated and reported as a function of each collected gel fraction. SpC are a count of the number of spectra identified for a given protein and are used as a measure of relative protein abundance (Liu, H. et al., Analytical Chemistry 2004, 76:4193-4201). To calculate the percentage of intact protein remaining at the 10 min time point of the SGF digest the number of SpC representative of intact peptide in the t=10 min sample were divided by the number of SpC representative of intact peptide in the t=0 min sample. The number of SpC representative of intact peptide was defined as the sum of the SpC in the fraction with the highest number of SpC assigned to that protein in the t=0 min sample and the two flanking fractions.

[4] = pH solubility screen in Citric Acid / Dibasic Sodium Phosphate buffers; format: physicochemical; details: for pH Range where Protein is >80% detected as Soluble and A650 <1 OD: Low: lower pH of range; for pH Range where Protein is >80% detected as Soluble and A650 <1 OD: High: upper pH of range
Method: pH Solubility. […] Protein was either lyophilized and then resuspended in buffer cocktail mixtures, or concentrated and then spiked into buffer cocktail mixtures at a final protein concentration of 5 to 30 mg/ml. As a control, protein was also dissolved in a solution of 8 M urea. Protein solutions were shaken for 10 min at room temperature. Turbidity of proteins was determined by measuring the absorbance of protein solutions at 650 nm. The protein solution was then centrifuged for 10 min at 1100×g to pellet undissolved or precipitated protein. The soluble protein fraction (supernatant) was sampled and protein concentration was measured by one or more of the following methods: Coomassie Plus Protein Assay (Pierce), Chip electrophoresis, gel electrophoresis, and/or absorbance at 280 nm. The pH range over which select proteins remained greater than 80% soluble as determined by Bradford and the A650 value are listed in Table E31C.

[5] = Thermostability, ProteoStat Thermal Shift Stability Kit, temperature of aggregation; format: physicochemical; details: NS = protein not soluble; for Tagg (pH 7.1): heated 25° C. to 95° C.
How it was run: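 Proteins at ~10 mg/ml in citric acid/dibasic sodium phosphate buffer, pH 2.8 to 7.1, with ProteoStat TS detection reagent. Heated 25 °C to 95 °C at 0.5 °C per 30 sec, fluorescence monitored with a Texas Red filter.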

[6] = Solubility of proteins (lyophilized/reconstituted or ultrafiltered); details: produced in E. coli unless otherwise noted
Method: Solubility. […] Protein samples were dried by lyophilization on a FreeZone Freeze Dry System (Labconco) using the manufacturer's standard protocol and then resuspended in buffer to the desired concentration. Centrifugal and tangential ultrafiltration were used to selectively remove buffer from the protein sample until the desired concentration was reached. Centrifugal ultrafiltration of protein solutions was performed by centrifugation (10,000×g) of 10 mg of protein in an Amicon centrifugal filter (Millipore) with a molecular weight cutoff of 3 kDa, 10 kDa, or 30 kDa, depending on the protein size, until the desired contrentration was reached. Ultrafiltration of protein solutions was performed on Hydrosart ultrafiltration cassettes (Sartorius Stedim, Bohemia, NY) with a molecular weight cutoff of 3 kDa, 10 kDa, or 30 kDa, depending on the protein size, at a cross flow rate of 12 L/m2/min. For most processes, transmembrane pressure was maintained at 20 psi and performed until the desired contrentration was reached.
The protein concentration of the above samples was measured by one or a combination of the following methods: Coomassie Plus Protein Assay, absorbance at 280 nm (A280), and total amino acid analysis. Coomassie Plus Protein Assays (Pierce) were performed according to the manufacturer's protocol. Absorbance at 280 nm was measured on a Nanodrop 2000 UV-Vis spectrophotometer. Protein concentration was determined using the A280 value and molar extinction coefficient, which was calculated by primary amino acid sequence using ProtParam (Gasteiger, Elisabeth, et al. The proteomics protocols handbook. Humana Press, 2005. 571-607.). Total amino acids were analyzed by HPLC after acid hydrolysis as described in Henderson, J. W., et al. Agilent Technologies (2010).

[7] = SGF pH 1.5, pepsin:polypeptide 1:20 w/w, 37° C., produced in E. coli unless otherwise noted

Row | Molecule | SGF Half-life (t½) ([1]; native and modified SEQID-00363, gel electrophoresis) | Free Leu (μM) at 120 min time point of Pancreatin digest ([2]; native and modified SEQID-00363) | % Remaining at 10 min [3] | pH Range where Protein is >80% detected as Soluble and A650 <1 OD: Low [4] | pH Range where Protein is >80% detected as Soluble and A650 <1 OD: Other [4] | pH Range where Protein is >80% detected as Soluble and A650 <1 OD: High [4] | Tagg pH 5.0 [5] | Tagg pH 5.6 [5] | Tagg pH 6.0 [5] | Tagg pH 6.5 [5] | Tagg (pH 7.1) [5] | SGF Half-life (t½) [1, 7] | Half-life [1] | Solubility [6] | Tagg pH 2.8 ([5]; pH 2.8) | Tagg pH 3.7 ([5]; pH 3.7) | Tagg pH 4.3 ([5]; pH 4.3) | Tagg pH 4.6 [5] | Free Leu (μM) at 120 min time point of Pancreatin digest ([2]; after 120 min SGF, Pancreatin SIF pH 6.5)
1 | B1 | 1220 s | 763.5 µM | – | – | – | – | – | – | – | – | – | – | – | – | – | – | – | – | –
2 | B2 | – | – | 0% | 4.6 | 2.8 | 7.1 | 31.5 | 34.5 | 36 | 36.5 | 36 | 30 s | 30 s | 99 mg/mL | – | – | – | – | –
3 | B3 | – | – | 9.7% | 7.1 | 2.8 | – | 77 | 77 | 76.5 | 78.5 | 95 | 36 s | 36 s | – | 95 | 95 | 95 | 95 | –
4 | B4 | – | – | 4.3% | 5.6 | – | 7.1 | – | – | 39.5 | 45.5 | 42 | 18 s | 18 s | – | – | – | – | – | –
5 | B5 | – | – | – | – | – | – | – | – | – | – | – | – | – | 193 mg/mL | – | – | – | – | 587.1 µM
6 | B6 | – | – | 0% | 5.6 | – | 7.1 | 33.5 | 37 | 44.5 | 38.5 | 39 | 12 s | 6 s | – | – | – | – | 40.5 | –
